From publication PMC6775779

Molecular target: HIV-1 integrase Q214C/Q221C double mutant, in virions (HIV-1)
Assay: cross-linking

Substance: HIV-1 integrase Q214C/Q221C double mutant, in virions (enzyme)
- fold increase of the dimer percentage over WT: 3 fold
- stoichiometry N: 2
